According to article PMC4635315 (2015):

Key:
BARTL1 (CCDC104/CFAP36) = BARTL1 (CCDC104/CFAP36) (Homo sapiens, UniProt Q96G28); assay: fluorescence polarization
[1] = molecular target: BARTL1 (CCDC104/CFAP36) 1-133 (Homo sapiens, UniProt Q96G28); assay: fluorescence polarization
Sequence of BARTL1 (CCDC104/CFAP36) 1-133 (Q96G28 1-133): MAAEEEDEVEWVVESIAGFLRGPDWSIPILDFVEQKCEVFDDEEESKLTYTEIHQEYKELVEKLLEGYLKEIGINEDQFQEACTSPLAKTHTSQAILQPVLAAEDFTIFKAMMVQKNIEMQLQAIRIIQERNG

Sequence of BARTL1 (CCDC104/CFAP36) (Q96G28 whole entry): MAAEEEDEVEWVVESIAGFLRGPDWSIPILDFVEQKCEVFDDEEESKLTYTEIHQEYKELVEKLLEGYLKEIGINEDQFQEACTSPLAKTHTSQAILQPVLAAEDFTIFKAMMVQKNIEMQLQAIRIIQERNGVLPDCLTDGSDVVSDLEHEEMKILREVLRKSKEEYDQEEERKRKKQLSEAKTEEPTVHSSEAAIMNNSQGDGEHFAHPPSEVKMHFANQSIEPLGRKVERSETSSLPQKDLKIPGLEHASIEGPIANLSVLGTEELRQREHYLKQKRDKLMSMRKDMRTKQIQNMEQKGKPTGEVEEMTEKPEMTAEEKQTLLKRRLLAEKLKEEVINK

Kd (BARTL1 (CCDC104/CFAP36)): ~10 µM
Kd [1]: ~4.3 µM
B1: Arl2 (protein)
chain: GLLTILKKMKQKERELRLLMLGLDNAGKTTILKKFNGEDVDTISPTLGFNIKTLEHRGFKLNIWDVGGQKSLRSYWRNYFESTDGLIWVVDSADRQRMQDCQRELQSLLVEERLAGATLLIFANKQDLPGALSCNAIQEALELDSIRSHHWRIQGCSAVTGEDLLPGIDWLLDDISSRVFTAD
modifications: mant-GppNHp-bound Arl2
